Values of other authors in patent publication US20070212358A1, “Compositions and Methods for Effecting Controlled Posterior Vitreous Detachment” (priority 2006, published 2007).

Tested on: vitreoretinal interface
Details: rabbit eyes

B1: plasmin (protein, UniProt P00747 20-580; P00747 581-810, looked up)
Plasmin heavy chain A: EPLDDYVNTQGASLFSVTKKQLGAGSIEECAAKCEEDEEFTCRAFQYHSKEQQCVIMAENRKSSIIIRMRDVVLFEKKVYLSECKTGNGKNYRGTMSKTKNGITCQKWSSTSPHRPRFSPATHPSEGLEENYCRNPDNDPQGPWCYTTDPEKRYDYCDILECEEECMHCSGENYDGKISKTMSGLECQAWDSQSPHAHGYIPSKFPNKNLKKNYCRNPDRELRPWCFTTDPNKRWELCDIPRCTTPPPSSGPTYQCLKGTGENYRGNVAVTVSGHTCQHWSAQTPHTHNRTPENFPCKNLDENYCRNPDGKRAPWCHTTNSQVRWEYCKIPSCDSSPVSTEQLAPTAPPELTPVVQDCYHGDGQSYRGTSSTTTTGKKCQSWSSMTPHRHQKTPENYPNAGLTMNYCRNPDADKGPWCFTTDPSVRWEYCNLKKCSGTEASVVAPPPVVLLPDVETPSEEDCMFGNGKGYRGKRATTVTGTPCQDWAAQEPHRHSIFTPETNPRAGLEKNYCRNPDGDVGGPWCYTTNPRKLYDYCDVPQCAAPSFDCGKPQVEPKKCPGR
Plasmin light chain B: VVGGCVAHPHSWPWQVSLRTRFGMHFCGGTLISPEWVLTAAHCLEKSPRPSSYKVILGAHQEVNLEPHVQEIEVSRLFLEPTRKDIALLKLSSPAVITDKVIPACLPSPNYVVADRTECFITGWGETQGTFGAGLLKEAQLPVIENKVCNRYEFLNGRVQSTELCAGHLAGGTDSCQGDSGGPLVCFEKDKYILQGVTSWGLGCARPNKPGVYVRVSRFVTWIEGVMRNN
modifications: Plasmin
Plasmin treatment
  posterior vitreous detachment (PVD) in eyes treated with plasmin: some areas of PVD
Plasmin treatment with subsequent vitrectomy
  detachment of the vitreous after plasmin treatment and vitrectomy: substantially detached
